US20170275380A1 (ROCHE DIAGNOSTICS OPERATIONS, published 2017)
No end group written: not given here.

Assays:
[1] = molecular target: T1, human HER2(1223-1236)-Bi-PEG-amide (human, also: Bi-PEG (biotin-PEG), place not given here); test: SPR kinetic screening (Biacore A100); mAb captured by anti-mouse IgG Fc; peptide grafted on streptavidin as analyte; Langmuir model; anti-HER2 antibody, HER2 peptide
T1 construct: Injected as analyte singly grafted on streptavidin; also called HER2 peptide
T1 peptide: WDQDPPERGAPPST-NH2
Protocol: (§1) A BIACORE™ A100 instrument under control of the software version V1.1 is used. A BIACORE™ CMS chip is mounted into the instrument and is hydrodynamically addressed conditioned according to the manufacturer's instructions. As a running buffer an HBS-EP buffer is used (10 mM HEPES (pH 7.4), 150 mM NaCl, 1 mM EDTA, 0.05% (w/v) P20). A polyclonal rabbit anti-mouse IgG Fc capture antibody is immobilized at 30 μg/ml in 10 mM sodium acetate buffer (pH 4.5) to spots 1, 2, 4 and 5 in flow cells 1, 2, 3 and 4 at 10,000 RU. The antibody is covalently immobilized via NHS/EDC chemistry. The sensor is deactivated thereafter with a 1 M ethanolamine solution. Spots 1 and 5 are used for the determination and spots 2 and 4 are used as reference. Prior to application to the sensor chip the hybridoma supernatants containing mAbs are diluted 1:2 in HBS-EP buffer. The diluted solution is applied at a flow rate of 30 μl/min for 1 min. Immediately thereafter the analyte, human HER3(1242-1267)-Bi-PEG-amide (SEQ ID NO:26) or human HER2(1223-1236)-Bi-PEG-amide (SEQ ID NO:25), singly grafted on streptavidin, is injected at a flow rate of 30 μl/min for 2 min. Thereafter, the signal is recorded for 5 min dissociation time. The sensor is regenerated by injecting a 10 mM glycine-HCl solution (pH 1.7) for 2 min, at a flow rate of 30 μl/min.

[2] = molecular target: T2, IGF-1R(1340-1366)[1346-pTyr; Glu(Bi-PEG-1340]amid (phosphotyrosine at 1346; PEG-linker with biotin bound via glutamic acid corresponding to position 1340; C-terminal amide); test: SPR (Biacore 2000, 25 C); hybridoma supernatant 1:2 over biotinylated peptide on SA chip
T2 construct: also called pIGF-1R peptide (biotinylated); phosphorylated IGF-1R peptide
T2 peptide: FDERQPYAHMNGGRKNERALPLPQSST
Protocol: (§2) Further, surface plasmon resonance was used to determine the antigen specificity. A BIACORE™ 2000 instrument (GE Healthcare) was used with a BIACORE™ SA sensor mounted into the system at T=25° C. and was preconditioned at 100 μl/min with 3×1 min injection of 1 M NaCl in 50 mM NaOH and 1 min 10 mM HCl. The system buffer was HBS-ET (10 mM HEPES pH 7.4, 150 mM NaCl, 1 mM EDTA, 0.05% TWEEN® 20). The sample buffer was the system buffer+1 mg/ml CMD (Carboxymethyldextrane, Sigma).
(§3) Subsequently, biotinylated peptides were captured on the SA surface in the respective flow cells. The flow cells finally were saturated with 2 μM d-biotin. […] Flow cell 1 served as a reference. A blank buffer injection was used instead of an antigen injection to double reference the data by buffer signal subtraction. The data was evaluated according to the BIACORE™ evaluation software 1.1.1. The signal height was measured at the end of the injection time, Binding Late (RU).

[3] = molecular target: T3, IGF-1R(1340-1366); Glu(Bi-PEG-1340]amid (PEG-linker with biotin bound via glutamic acid corresponding to position 1340; C-terminal amide); test: as above
T3 construct: also called IGF-1R peptide (biotinylated, non-phosphorylated); IGF-1R(1340-1366)PEG-Bi
T3 peptide: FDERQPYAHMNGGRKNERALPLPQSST
Protocol: as §2, §3

[4] = molecular target: Bi-InsulinR(1356-1382)p1361 (phosphotyrosine at 1361; biotin); test: as above
Chain of Bi-InsulinR(1356-1382)p1361 (phosphotyrosine at 1361; biotin) (peptide, as listed by the source): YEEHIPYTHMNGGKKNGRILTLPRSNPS
Protocol: as §2, §3

[5] = molecular target: T4, human HER3(1242-1267)-Bi-PEG-amide (human, Bi-PEG (biotin-PEG); C-terminal amide); test: SPR kinetic screening (Biacore A100); mAb captured by anti-mouse IgG Fc; peptide grafted on streptavidin as analyte; Langmuir model; anti-HER3 antibody, HER3 peptide
T4 construct: Injected as analyte singly grafted on streptavidin; also called HER3 peptide
T4 peptide: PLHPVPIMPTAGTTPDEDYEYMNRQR
Protocol: as §1

B1: antibody 4.1.43 (antibody, V domains shown)
VH: EVQLQQSGPVLVKPGASVKMSCRPSGYTFTDYNMHWVKQSHEKSLEWIGYINPKNGIISYNQKFKDKATLTVNKSSRTAYMELRSLTSEDSAVYFCAGDYWGQGTSVTVSS
VL: DVVMTQTPLSLPVSLGDQASISCRSSQSLVHSNGNTYLHWYLQKPGQSPKLLISKVSNRFSGVPDRFSGSGSGTDFTLKISRVEAEDLGVYFCSQSIHLPWTFGGGTKLEIK
notes: Mouse monoclonal antibody, tested from hybridoma supernatant captured by anti-mouse IgG Fc; also called selected antibody directed against HER2
Question: How did the koff [1] turn out when B1 was run?
Answer: Its koff is 0.000963 s⁻¹.

B2: mAb 1.4.168 (antibody, V domains shown)
VH: DVKLVESGGGLVKPGGSLKLSCAASGFTFSDYPMSWVRQTPEKRLEWVATITTGGTYTYYPDSIKGRFTISRDNAKNTLYLQMGSLQSEDAAMYYCTRVKTDLWWGLAYWGQGTLVTVSA
VL: QLVLTQSSSASFSLGASAKLTCTLSSQHSTYTIEWYQQQPLKPPKYVMELKKDGSHTTGDGIPDRFSGSSSGADRYLSISNIQPEDESIYICGVGDTIKEQFVYVFGGGTKVTVLG
notes: Murine monoclonal IgG from hybridoma; also called M-1.4.168-IgG; M-1.004.168-IgG
Question: What does the source list for B2?
Answer: Binding Late (RU) [2]: 265 RU; Binding Late (RU) [3]: 199 RU; Binding Late (RU) [4]: 0 RU

B3: antibody 7.2.32 (antibody, V domains shown)
VH: EVQLQESGGGLVQPKGSLQLSCAASGFTFNTYAMHWVRQAPGKGLEWVARIRTESSDYATDYADSVKDRFIISRDDSQNMLYLQMNNLKSEDTAIYYCVRSSGFDYWGQGTTLTVSS
VL: DIQMTQSPSLPVSLGDQASISCRSSQSLVHDNGNTYLHWFLQKPGQSPKLLIYKVSNRFSGVPDRFGGSGSGTDFTLKISGVEAEDLGVYFCSQGTHVPTFGGGTKLEIK
notes: Mouse monoclonal antibody, tested from hybridoma supernatant captured by anti-mouse IgG Fc; also called selected antibody directed against HER3
Question: Which koff [5] does the source give for B3 here?
Answer: The koff was 0.0023 s⁻¹.
